Experimental data reported in the DeepSol protein solubility set.

test: soluble on expression in E. coli; label from the status in PepcDB or PDB records

Sequence | soluble on expression in E. coli
VQAVAVLKGDAGVSGVVKFEQASESEPTTVSYEIAGNSPNAERGFHICEFGDATNGCVSAGPHFNPFKKTHGAPTDEVRHVGDMGNVKTDENGVAKGSFKDSLIKLIGPTSVVGRSVVIHAGQDDLGKGDTEESLKTGNAGPRPACGVIGLTN | soluble
VREVCSEQAETGPCRAMISRWYFDVTEGKCAPFFYGGCGGNRNNFDTEEYCMAVCGSA | soluble
VRPAIKVGLSTASVYPLRAEAAFEYADRLGYDGVELMVWGESVSQDIDAVRKLSRRYRVPVLSVHAPCLLISQRVWGANPILKLDRSVRAAEQLGAQTVVVHPPFRWQRRYAEGFSDQVAALEAASTVMVAVENMFPFRADRFFGAGQSRERMRKRGGGPGPAISAFAPSYDPLDGNHAHYTLDLSHTATAGTDSLDMARRMGPGLVHLHLCDGSGLPADEHLVPGRGTQPTAEVCQMLAGSGFVGHVVLEVSTSSARSANERESMLAESLQFARTHLLR | not soluble
VRPHWRDLETLRLAAQRFGDGDLSSRTRIFRRSDIRTLAQHFNQMADRIESLISNQRELTNAVSHELRTPISRLSFELEQLNKQVDAEVRHDLIEDMRADLGELEEMVSELLTYARLEHGNVGSHREIVDAASWLDSVVADVALEAEAAGVTCEISACQVEQIRIEPRFMARAVINLLRNAIRHAHSRVEIALLDQGDSCQIRVNDDGPGIPADARQKIFEPFSRLDDSRDRSTGGFGLGLAIVHRVAQWHGGYAEALETPQGGASFRLTWERPR | not soluble
VRQLSQPLKRLVVAARQFGQGRSVRLPLGPETPSEMAEVYRAFNQMAEDIEQGGRERELMLAGVSHDLRTPLTRLRLSLELLPESEREMVEDMIRDIEDMDAILDQFLAFIRDGRDEPVEEGDLTDLVREVVAPFNQTREQVRMALQPVPAMPLRRVSMKRLLGNLIDNALNHGGGSVEVASYVAGESAAPYVVLSVLDRGQGIDPAEVDSIFNPFIRGDKARGGKGTGLGLAIVKRIAAQHGGSVELRNRDGGGLEARVCLPLGLLLPRGAA | not soluble
VRSSSRTPSDMPVAHVVANPQAEGQLQWKNAGANALLANGVELRDNQLVVPSEGLYLIYSQVLFSGQGCPSTHVLLTHTISRIAVSYQTPVNLLSAIRSPCQRETPEGAEANPWYEPIYLGGVFQLEPGDRLSAEINRPDYLDFASTGQVYFGIIAL | soluble
VSKDRLYFRQLLSGRDFAVGDMFATQMRNFAYLIGDRTTGDCVVVDPAYAAGDLLDALESDDMQLSGVLVTHHHPDHVGGSMMGFQLPGLAELLERASVPVHVNTHEALWVSRVTGIPVGDLITHEHGDKVSVGDIDIELLHTPGHTPGSQCFLLDGRLVAGDTLFLEGCGRTDFPGGDSDEMYRSLRQLAELPGDPTVFPGHWYSAEPSASLSEVKRSNYVYRPASLDQWRMLMGG | not soluble
VTDHVREADDANIDDLLGDLGGTARAERAKLVEWLLEQGITPDEIRATNPPLLLATRHLVGDDGTYVSAREISENYGVDLELLQRVQRAVGLARVDDPDAVVHMRADGEAAARAQRFVELGLNPDQVVLVVRVLAEGLSHAAEAMRYTALEAIMRPGATELDIAKGSQALVSQIVPLLGPMIQDMLFMQLRHMMETEAVNAGERAAGKPLPGARQVTVAFADLVGFTQLGEVVSAEELGHLAGRLAGLARDLTAPPVWFIKTIGDAVMLVCPDPAPLLDTVLKLVEVVDTDNNFPRLRAGVASGMAVSRAGDWFGSPVNVASRVTGVARPGAVLVADSVREALGDAPEADGFQWSFAGPRRLRGIRGDVRLFRVRRGATRTGSGGAAQDDDLAGSSP | soluble
VVMHPGFGAAALTGATGAAAAAAAAPTPQASPLGGRGTGASAEPATSAHSHGGGGGFGNVVSGTPMETTVSLPPQVSSHAGGRGASGSTDSSAEASTDHKRARTNNPGAGGARAAQAAALPSLDAVTSQQAAAAAGMAPAAGTLGAVPPAYPAVAVAPAAEVNGAMPYVDALTEQLRAVRLLQPTPPSSASSAPVRASAAAMADVTENVAVKAKGKKKGAAAAAAAQPPPPPLLPPAPRTEMDRRAALSGAAGAFMAACDEAVRELLLAMNFSDHDAEAIITGAAPPQLEHAASGVVSLVLRLKSSVLSHYIKHLNNAAARSQAAAASTAAVDGNAEDAADKHGAKATSAAKAPPAAGGGAGDAADQQLSTGEACLVQLQLYGGVGDALLQLLRSKLRGSACQLWALAHIVHPHPSRSEKESLAAYTGKSTKQVTDWFTNWRARHW | not soluble
VVPGPVHTSPREVAGPVDVLILAVKATQNDAARPWLTRLCDERTVVAVLQNGVEQVEQVQPHCPSSAVVPAIVWCSAETQPQGWVRLRGEAALVVPTGPAAEQFAGLLRGAGATVDCDPDFTTAAWRKLLVNALAGFMVLSGRRSAMFRRDDVAALSRRYVAECLAVARAEGARLDDDVVDEVVRLVRSAPQDMGTSMLADRAAHRPLEWDLRNGVIVRKARAHGLATPISDVLVPLLAAASDGPG | not soluble
VYNYMVDDTRSQLSIFMDEIAAQLEVDHTGHLSLAAQLSDPRFSRPYSGLYWSASTDSSLERSRSLWDKRIEYKGLDKDAYGARDEKLITLEKALYLPDYDGPIHIIVGIDEEPIKSTLQ | not soluble
WDPPYLQIAFDNPNLEFVLSAISEIPKSDHVIIEAGTPLIKRYGTDVISKIRQVRPDAFIVADLKTLDTGNLEARMVADAAGDAIVVSALAPISTIDKLIEEAHKTGIYAVMDTLNQQDPISVLKQLKVMPDVIELHRGIDIEGTEHAWGNIGEIKKIAPKALVAVAGGVRLDKVPVALSQGADILVVGRAITNAKDVREMAEQFINSLNK | soluble
WLEPYMTSVASVKDLSKINLVEALNARLGWPLNQHLDEWLPEHYQLPTGTKKRIRYQHGHEPVLSVRMQEVFGESTSPTVALGRKRLVLELLSPAQRPLQVTSDLAAFWNGSYKDVQKEMKGRYPKHVWPDDPANHVATTKTKRQLNND | not soluble
YAEIRARLYLMTGQTNKALNELRRLCNRFPEVNEFRLKYAGTLLDSEKYDEAYEQLQLIARTDSTSGLYHFAMASYYLGTNEKEAAINEMIKVAADKDVAPEQKLPIILRFIGTDTDEEDAPKKEYNILLEKILASHPTEVDARLFYAELLEMQGDSIHAMEVCRPITEFAPKEERAWKFMLGRAVTGQNHTEVHRISEQARQYLPGVPLFYLYDAISYYIEKKGSEAKHILQEALEHIDAEKDPNGLSDIYSQLGDLAYEENKPEEAFANYEKALELNPRNVGVLNNYAYFLAKEGGDLAKAERMAAQCVKLLPDNAVSLDTYGWVFFLRENYTLAKLYIEKALGLAADNPDADVVEHHGDVLYMLGEKEKAMLEWKRAKEIGGGGSPMLDKKIEQGKYIPEKKK | not soluble
YICRLPAEEIGFPEFYPRISRSMKSIKRPNLIYPAGKGLAVHIYPDKEDVRNYYIPIEPCLFQKLDSMLEEVEKLLIDVIHDQEINTNDPEEKKKLLVKALEKTCD | not soluble
YIGSGASQPNRTDVVWMVPSWTCKNEYSIDVEKYGILQNEDQHFVGGKQFAIFYEHSFGKIPYFKAQNESDPKNGGLPQMGDLEAHLIQAEKDINETIPDENFNGIAVIDIEEFRPMWELSWGPFSVYKTESIRLTRQQHPYWSTKQIEWQAERDYEKACQKFFIETLRLGKRLRPNAKWGYYLFPKCNGDVGQKSDTDCSTLFQKFNDNLHWLWGESTALFPSIYLYPSQKQNPEYNFVNSGALITETKRIKRNYCPSCEIHVFTKIEYNPYYTPDDFYSKQNLASTLDLAIKMNANSVVIWSTSQSIGSRCGSLQTYVDNTLGPYLQLTDRNLD | not soluble
YKIDFYRNFLVPLKVGKIKKIILDLRGNGGGMVLDARTFTDRFITKDAIFGYQRFKEDNNPFSYTPWIPCMTKTTGIGIKKEIPIVILLDNNSASMSEISTLMLKSQGKHVTVVGGYSAGATAGLGDSDQFNGGIRGKVSDYLEFYMPLLAMQDATHTVIEGIGIKPDLLVDPLTEDEVREMALSPFTHIDRTLKQAIEVLSNN | not soluble
YPQVIVDHPFLYLIRNRKSGIILFMGRVMNPHH | soluble
YSQVQLPFNDLLYIETSSRSHRVVLYTEKDRMEFTATLGDILKQEPRLFQCHRSFLVNPLNIFKVDRIDRLVYFQNGTTCLVSRNKVRDIVSIVDKYQKDRKR | not soluble
